Residue numbers refer to the chain shown, from its start. Some results are limits rather than exact numbers.

From PMC7943553, “Naturally acquired blocking human monoclonal antibodies to Plasmodiumvivax reticulocyte binding protein 2b” (Nature Communications, 2021) come the findings set out here.

B1: PvRBP2b human mAb 253245 (antibody, V domains shown)
VH: EVQLVQSGAEVKKPGSSMKVSCKASGGTFNRYVFSWVRQAPGQGLEWMGGILPILETTYYAKNFKGRVTITADESTSTVYMELSSLTSEDTAVYFCARDEHDYVWGSYRPSLTGPWGQGTLVTVSS
VL: QSALTQPPSTSGSPGQSVTISCTGTGIDVGGFSYVSWFQYHPGKAPKLIIFEVTKRPSGVPDRFSGSKSGNTASLTISGLQADDEAEYYCSSYAVNNNFVFGTGTKVTVL
notes: variable region as the Fab heavy chain in PDB 6WTY; cloned into a human IgG1 backbone, full-length antibody; lambda light chain; as the Fab light chain in PDB 6WTY; IgG1; source: Expi293 HEK cells, transfected, purified (Protein A, gel filtration)
B2: PvRBP2b human mAb 243244 (antibody, V domains shown)
VH: QVQLVESGGGVVQSGKSLRVSCAASGFTFSSYGMHWVRQAPGKGLEWVAFISYDGDNKYSADSVKGRLTISRDNSKNTLYLQMNSLRPEDTAVYYCAKESNYGENAFDIWGQGTMVTVSS
VL: QSALTQPRSVSGSPGQSVTISCTGTSSDVGFYNFVSWYQHHPGKAPKLIIYDVSERPSGVPDRFSGSKSGNTASLSISGLQPEDEADYYCCSYAGTYTFVFGSGTKVTVL
notes: variable region as the Fab heavy chain in PDB 6WNO; cloned into a human IgG1 backbone, full-length antibody; lambda light chain; as the Fab light chain in PDB 6WNO; IgG1; same clonal group as 237235; source: Expi293 HEK cells, transfected, purified (Protein A, gel filtration)
B3: PvRBP2b human mAb 237235 (antibody, V domains shown)
VH: QVQLVESGGGVVQPGRSLRLSCAASGFMFNSYGMHWVRQAPGKGLEWMAFISYDGSDDYYGDSVKGRITISRDNSKNTLFLHINSLRTEDTAVYYCAKESNYGENAFDVWGHGTMVTVSS
VL: B2 VL with S27N, I49M, S54T, S76T, P82A, D87E, S103H
notes: variable region as the Fab heavy chain in PDB 6WM9; cloned into a human IgG1 backbone, full-length antibody; lambda light chain; as the Fab light chain in PDB 6WM9; IgG1; same clonal group as 243244; source: Expi293 HEK cells, transfected, purified (Protein A, gel filtration)
B4: PvRBP2b human mAb 241242 (antibody, V domains shown)
VH: EVQLLESGGGLVQPGGSLRLSCAVSGFTFRNYALSWVRQAPGKGLDWVSTISASGGATYYADSVKGHFTISRDNSKNILYLDMKSLRAEDTAIYYCARDGGSYTPYFFLDSWGQGALVTVSS
VL: SYELTQPASVSVAPGQTAQITCGGNSIGRKSIHWYQHKPGQAPVLVISYDSDRPSGIPERFSGSNSGNTATLTISKVEAGDEADFYCQVRDSDNDHVVFGGGTKLTVL
notes: variable region as the Fab heavy chain in PDB 6WN1; cloned into a human IgG1 backbone, full-length antibody; lambda light chain; as the Fab light chain in PDB 6WN1; IgG1; also called 241424 [sic]; source: Expi293 HEK cells, transfected, purified (Protein A, gel filtration)
B5: PvRBP2b human mAb 258259 (antibody, V domains shown)
VH: EVQLLESGGGLVRPGGSQRLSCAASGFTFTPYAMTWVRQAPGKGLEWLSTISGSGGSTYYADSVKGRFTISRDNSKNMLYLQMNSLTAEDTALYYCTKDKDEYTFGHNAFDVWGQGTMVTVSS
VL: SYELTQAPSVSVAPGQTARITCGGDNIGRKTVNWYQQKPGQAPVLVIYYDNDRPSGIPERFSGSNSGNMATLSISRVEVGDEADYYCQVWDSNNDHPVFGGGTKLTVV
notes: variable region as the Fab heavy chain in PDB 6WTV; cloned into a human IgG1 backbone, full-length antibody; lambda light chain; as the Fab light chain in PDB 6WTV; IgG1; same clonal group as 273264; source: Expi293 HEK cells, transfected, purified (Protein A, gel filtration)
B6: PvRBP2b human mAb 273264 (antibody, V domains shown)
VH: B5 VH with Y59S, M78I, N84D, T87R, Q115R
VL: B5 VL with K30T, T31S, N33H, Y48F
notes: variable region as the Fab heavy chain in PDB 6WTU; cloned into a human IgG1 backbone, full-length antibody; lambda light chain; as the Fab light chain in PDB 6WTU; IgG1; same clonal group as 258259; source: Expi293 HEK cells, transfected, purified (Protein A, gel filtration)
B7: PvRBP2b human mAb 251249 (antibody, V domains shown)
VH: EVQLVESGGGLVKPGGSLRLSCEASGFLFSSYSMNWVRQAPGKGLEWVSSITGYSSEVFYTDSVKGRFTVSRDNSKNSLYLQMDSLRAEDTAVYYCARALTIFGVVITDYWFFDLWGRGTLVTVSS
VL: EIVLTQSPATLSLSPGDRATLSCRASQSVTTFLAWYQQKPGQAPRLLIYDVSNRATGIPARFSGSGSGTDFTLTISSLEPEDFAVYYCQQRSNWGLTFGGGTKVEIK
notes: variable region as the Fab heavy chain in PDB 6WOZ; cloned into a human IgG1 backbone, full-length antibody; kappa light chain; as the Fab light chain in PDB 6WOZ; IgG1; source: Expi293 HEK cells, transfected, purified (Protein A, gel filtration)
B8: PvRBP2b human mAb 283284 (antibody, V domains shown)
VH: QVQLQQWGAGLLKPSETLALTCTVYGGSSSGYYWNWIRQSPGKGLEWIGEISDSGSTIYNPSLESRVTMSVDTSKNQFSLKLTSVTAADTAVYYCAKAILTRYNWLDPWSQGTLVTVSS
VL: DIVMTQSPSSLSASVGDRISISCRASQGVNSALAWYQQKPGKAPKLLIYDASTLESGVPSRFSGSGSGTDFALTINSLQPEDFATYYCQQFNSYPLTFGGGTKVEIK
notes: variable region as the Fab heavy chain in PDB 6WQO; cloned into a human IgG1 backbone, full-length antibody; kappa light chain; as the Fab light chain in PDB 6WQO; IgG1; source: Expi293 HEK cells, transfected, purified (Protein A, gel filtration)
B9: P. vivax Reticulocyte Binding Protein 2b, residues 161–1454 (domain or fragment, P. vivax strain Salvador I, UniProt A5K736 161-1454, looked up)
chain: PSPESTQITNTTDNIDYFDISDESNYYLISQLRPHFSNIYFFDEFKRYASYHTEIKRYEDIHKTKVNSLLNEASRAIGICNRAKNTVKGLINILENPQKFKTQRESYDVKLRQYEEKKEAFRGCLLNKNRKNLDQIKKINNEIRDLLEKLKCSQDCQTNVYFDMIKIYLVDFKKMPYENYDTFIKQYKNSYLSGVDMIRKIEKQIDNPVTINAIKFTQKEMGYIIDRFEYHLQKVKHSIDQVTALSDGVKPKQVTKNRLKEYYFNIGNYYSIFKFGKDSLNMLNKALIHKEKIVHNLLGELFGHLEERISKLIDSEYFITESNNIISQSEETLKLAEDVYDKNTKLIEDLTLYPHLEINEFKKDYDNNVEDLRESIIYIQSYVSSIKSAYRYNVLEKDSVESKQKNIPANSNAQKKVDELLSIIDSISYSNFSVAENFQKMKDYYKEIEKLKIKILQLIEAIKKYQQHVEELINKEKAVAILKEDINKIIEYIKGIIEKLKQLISANKDFDKIFQQVEQLINEALFNKDQFEHNKNDLHTKMKEIMHTFHERDLQQFLDNMSKFLKDQEASYQNADSKEKLDQLLTTVKAKQDELKEMKCDDIPDIIDNLKKESQNVLNLKDEVINKQFENMRTEMSSSLDQMTKEYNALKSSIEEYEAEKKGIENHKQNIIKRKNTFIVAEHENDEDVPEGKNTYNEFISNKDTILQKESAISNQMNTLEEKKRNRKTTLQTYGDAIQKLETYTEKKDEETKVLLDKFNTEVENFKLDEDEKSFNDAKSIVSNTINEVENENKNIDSIKKVNIAMKRSRSNQQSVEQLIRNKDNLLKEKMEKHFQKINTDEIIGQSAKANLLNNLESEKAIINEQLNDAHLNDLKLQIEKTLSYCEKSRENIKGNNGTHPEELNASEIEWEATKGKIETLNSNYQALNKNMDDIINKQHDEMIVLIDRDIKEKGKDIELKVEQRIQALEKMKAKLSSFDTNEDVKKYQSDINKEELIKLKEMSTAVLNKIDQNKNQLINVKTKSSGYVAESNGIKNKQTEPSQEKDKQIVYNTNRGDIEKVYKNIRDMYNELDDVEKEETTSNEVDNIEMQYDRLLINLLVQKINEENTKAKGLMEEIKSYIENIESVQAKMSDETREGATEFEFNQYQQSSLANDKKITEIVQHAINKKGEAERSKKTNEVKSIKNDVNTYMQQVIDEYNAMQKALGDIKNVNDLLISTSGRRIAEEISKSTNEAENFEKQAKGELGKINDIIEKMENQMVQAKEHENKIHINLEDKQIDEEVQKIRQIHEE
modifications: DyLight 488 (NHS ester) in the FRET assay; biotin (BirA site) in the competition ELISA between human mAbs
notes: PvRBP2b, P. vivax strain Salvador I, PlasmoDB PVX_094255 (total length 2806 amino acids), residues 161-1454; also called PvRBP2b_(161–1454); PvRBP2b; source: recombinant; expressed and purified in a similar manner as PvRBP2b161–470 (E. coli SHuffle T7; HisTrap, Q-Sepharose, size exclusion) or as previously described

T2 sequence (P02786 121-760, chain 1 of 2): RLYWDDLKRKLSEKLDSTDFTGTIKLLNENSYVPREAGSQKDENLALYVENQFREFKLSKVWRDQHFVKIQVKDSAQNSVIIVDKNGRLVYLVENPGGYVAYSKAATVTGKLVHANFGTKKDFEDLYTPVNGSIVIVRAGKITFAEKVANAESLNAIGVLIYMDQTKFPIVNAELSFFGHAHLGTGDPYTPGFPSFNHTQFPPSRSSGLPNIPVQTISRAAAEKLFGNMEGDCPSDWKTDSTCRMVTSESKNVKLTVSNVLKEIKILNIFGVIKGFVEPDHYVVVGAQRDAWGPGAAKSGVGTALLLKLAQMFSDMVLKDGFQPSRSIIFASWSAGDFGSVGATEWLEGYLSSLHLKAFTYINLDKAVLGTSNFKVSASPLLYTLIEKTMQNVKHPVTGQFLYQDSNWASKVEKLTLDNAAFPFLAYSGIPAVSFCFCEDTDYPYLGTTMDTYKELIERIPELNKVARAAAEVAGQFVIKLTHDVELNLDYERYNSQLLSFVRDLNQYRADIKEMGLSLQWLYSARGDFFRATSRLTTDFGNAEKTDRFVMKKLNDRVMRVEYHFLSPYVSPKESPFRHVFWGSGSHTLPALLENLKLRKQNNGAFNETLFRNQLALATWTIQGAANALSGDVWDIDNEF
T2 sequence (P02787 20-698, chain 2 of 2): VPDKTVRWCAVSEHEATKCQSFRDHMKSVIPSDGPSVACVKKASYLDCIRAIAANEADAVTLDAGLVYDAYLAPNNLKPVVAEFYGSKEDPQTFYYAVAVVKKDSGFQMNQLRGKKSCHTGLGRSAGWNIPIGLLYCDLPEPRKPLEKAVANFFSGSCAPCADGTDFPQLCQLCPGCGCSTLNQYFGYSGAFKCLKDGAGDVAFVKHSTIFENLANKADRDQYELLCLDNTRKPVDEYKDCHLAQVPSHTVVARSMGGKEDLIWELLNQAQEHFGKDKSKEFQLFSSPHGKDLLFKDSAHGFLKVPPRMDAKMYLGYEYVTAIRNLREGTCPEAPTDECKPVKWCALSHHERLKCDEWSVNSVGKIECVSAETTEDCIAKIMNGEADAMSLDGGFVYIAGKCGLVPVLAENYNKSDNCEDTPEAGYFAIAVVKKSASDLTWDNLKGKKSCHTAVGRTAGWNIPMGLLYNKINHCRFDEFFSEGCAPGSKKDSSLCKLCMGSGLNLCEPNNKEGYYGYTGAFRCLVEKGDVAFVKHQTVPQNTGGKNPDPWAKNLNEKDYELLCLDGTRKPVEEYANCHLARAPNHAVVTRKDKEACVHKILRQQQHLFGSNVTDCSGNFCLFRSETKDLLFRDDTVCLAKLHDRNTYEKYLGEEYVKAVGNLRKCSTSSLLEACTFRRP

One assay concerns the target T1, P. vivax Reticulocyte Binding Protein 2b, residues 161–1454 (P. vivax strain Salvador I, UniProt A5K736, DyLight 488 (NHS ester) in the FRET assay; biotin (BirA site) in the competition ELISA between human mAbs).
T1 construct: PvRBP2b, P. vivax strain Salvador I, PlasmoDB PVX_094255 (total length 2806 amino acids), residues 161-1454; also called PvRBP2b_(161–1454); PvRBP2b; source: recombinant; expressed and purified in a similar manner as PvRBP2b161–470 (E. coli SHuffle T7; HisTrap, Q-Sepharose, size exclusion) or as previously described
The assay is described as follows: flow cytometry on cells; PvRBP2b161–1454 at 4 μg/mL with human mAbs at 5-fold molar excess and reticulocytes, 1 h room temperature; inhibition relative to no mAb. The note with it: both partners purified. A general note: In flow cytometry, cells or beads pass a laser one at a time.
As to B1, the “percent inhibition of PvRBP2b161–1454 binding to reticulocytes” value (“percent inhibition” below) was greater than 98%.

For B2, the “percent inhibition” value worked out at 43%.

With B3, the “percent inhibition” value worked out at 47%.

Regarding B4, the “percent inhibition” value is greater than 98%.

As for B5, the “percent inhibition” value was greater than 98%.

For B6, the “percent inhibition” value was greater than 98%.

As for B7, the “percent inhibition” value came to 59%.

The target of the next assay is T1, P. vivax Reticulocyte Binding Protein …. The assay is described as follows: ELISA; plates coated with 65 nM recombinant protein in PBS at 4 °C overnight; human mAbs at 1 μg/mL, 1 h room temperature; HRP anti-human secondary; specificity panel and PvRBP2b fragments. The note with it: both partners purified. (In general: ELISA stands for enzyme-linked immunosorbent assay.)
B1: the “fold signal over control mAbs 099100 and 043038” value (from here on “fold signal”) was greater than 20 fold.

Consider B2, for which the “fold signal” value was greater than 20 fold.

Take B3: the “fold signal” value was greater than 20 fold.

With B4, the “fold signal” value was greater than 20 fold.

Regarding B5, the “fold signal” value is greater than 20 fold.

B6: the “fold signal” value is greater than 20 fold.

Turning to B8, the “fold signal” value was greater than 20 fold.

With B7, the “fold signal” value was greater than 20 fold.

The target is the same in the next assay. The assay can be described thus: ELISA; avidity ELISA: plates coated with 50 ng PvRBP2b161–1454; human mAbs at 0.2 µg/mL; then PBS, 0.5, 1 or 2 M NH4SCN for 20 min; binding relative to no NH4SCN. As to conditions: both partners purified.
For B1, the “percent binding left at 1 M NH4SCN” value is greater than 75% and the “percent binding left at 2 M NH4SCN” value was less than 75%.

Consider B2, for which the “percent binding left at 2 M NH4SCN” value is greater than 75%.

Regarding B3, the “percent binding left at 2 M NH4SCN” value was greater than 75%.

For the molecule B4, the “percent binding left at 1 M NH4SCN” value is greater than 75% and the “percent binding left at 2 M NH4SCN” value is less than 75%.

For B5, the “percent binding left at 1 M NH4SCN” value is less than 75%.

Turning to B6, the “percent binding left at 1 M NH4SCN” value was less than 75%.

For B8, the “percent binding left at 1 M NH4SCN” value was less than 75%.

Regarding B7, the “percent binding left at 1 M NH4SCN” value was less than 75%.

The target is the same in the next assay. The assay can be described thus: FRET or BRET; PvRBP2b161–1454-DL488, TfR1-DL594 and Tf at 1:1:1 molar ratio, 5-fold excess of human mAbs; 50 mM Tris-HCl pH 6.8, 150 mM NaCl, 0.01% BSA. As to conditions: both partners purified. A general note: BRET reads energy transfer from a luciferase to a nearby fluorophore.
For the molecule B1, the “percent decrease in FRET signal of PvRBP2b161–1454 with TfR1–Tf” value (shortened to “percent decrease in FRET signal”) is greater than 70%.

On to B4, for which the “percent decrease in FRET signal” value was greater than 70%.

Regarding B5, the “percent decrease in FRET signal” value was greater than 70%.

B6: the “percent decrease in FRET signal” value is greater than 70%.

A further assay has as its target T2, human Transferrin receptor 1 – Transferrin (human, UniProt P02786 121-760; P02787 20-698, DyLight 594 (NHS ester) in the FRET assay).
T2 construct: soluble ectodomain of human transferrin receptor 1, residues 121-760; follows the GP67 leader peptide, a 6xHis-tag and a factor Xa site; transferrin purified from human serum (apo-transferrin), loaded with iron to holo-transferrin; TfR1 and Tf were mixed with PvRBP2b in equal amounts in the assays; also called TfR1–Tf; TfR1 and Tf; copies: 2 + 2
Described as above. The note with it: both partners purified.
For B9, the binding result is “binds”.
